Reference: patent publication US20250361268A1, “NOVEL ANTI-INFLAMMATORY PEPTIDE AND USE THEREOF” (NOVACELL TECHNOLOGY INC., priority 2022, published 2025)

Experiments:
[1] = biological target: T1, formyl peptide receptor 2 (FPR2) (UniProt P25090 1-351, limits assumed); experiment: cell-based or functional assay
T1 sequence (looked up): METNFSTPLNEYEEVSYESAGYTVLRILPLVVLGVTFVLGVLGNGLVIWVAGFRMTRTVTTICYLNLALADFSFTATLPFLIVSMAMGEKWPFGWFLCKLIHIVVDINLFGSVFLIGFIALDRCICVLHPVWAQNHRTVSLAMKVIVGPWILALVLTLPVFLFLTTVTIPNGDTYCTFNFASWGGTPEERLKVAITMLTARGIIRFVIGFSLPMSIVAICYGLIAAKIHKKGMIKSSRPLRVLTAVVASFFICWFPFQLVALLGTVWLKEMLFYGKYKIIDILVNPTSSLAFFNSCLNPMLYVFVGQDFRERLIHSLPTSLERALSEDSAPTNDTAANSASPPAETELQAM

FPR1 = biological target: T2, FPR1 (UniProt P21462 1-350, limits assumed); experiment: cell-based or functional assay
T2 sequence (looked up): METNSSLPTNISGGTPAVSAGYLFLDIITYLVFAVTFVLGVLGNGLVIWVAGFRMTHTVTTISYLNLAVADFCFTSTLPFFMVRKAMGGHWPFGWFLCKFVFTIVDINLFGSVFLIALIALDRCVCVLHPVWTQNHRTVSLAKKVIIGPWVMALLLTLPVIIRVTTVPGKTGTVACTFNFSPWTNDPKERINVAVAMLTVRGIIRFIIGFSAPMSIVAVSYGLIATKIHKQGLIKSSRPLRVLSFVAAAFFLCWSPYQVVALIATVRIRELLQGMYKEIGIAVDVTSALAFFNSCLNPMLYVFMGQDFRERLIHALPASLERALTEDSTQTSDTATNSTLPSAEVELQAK

B1: peptide of SEQ ID NO 56 (peptide)
peptide: MRYKPM
HELM: PEPTIDE1{[CCCC(=O)[*:2]].M.R.Y.K.P.[dM].[am]}$$$$V2.0
SMILES: CCCC(=O)N[C@@H](CCSC)C(=O)N[C@@H](CCCNC(=N)N)C(=O)N[C@@H](Cc1ccc(O)cc1)C(=O)N[C@@H](CCCCN)C(=O)N1CCC[C@H]1C(=O)N[C@H](CCSC)C(N)=O
In the case of B1, the “EC50 for [Ca2+]” value [1] is reported as less than 0.01 µM and the “EC50 for [Ca2+]” value (FPR1) is reported as greater than 10 µM.

B2: peptide of SEQ ID NO 46 (peptide)
peptide: PMRYKYM
HELM: PEPTIDE1{P.M.R.Y.K.Y.[dM].[am]}$$$$V2.0; N-terminus assumed
SMILES: CSCC[C@H](NC(=O)[C@@H]1CCCN1)C(=O)N[C@@H](CCCNC(=N)N)C(=O)N[C@@H](Cc1ccc(O)cc1)C(=O)N[C@@H](CCCCN)C(=O)N[C@@H](Cc1ccc(O)cc1)C(=O)N[C@H](CCSC)C(N)=O
With B2 the “EC50 for [Ca2+]” value [1] was less than 0.01 µM and the “EC50 for [Ca2+]” value (FPR1) was greater than 10 µM.

B3: peptide of SEQ ID NO 61 (peptide)
peptide: HMRYKPM
HELM: PEPTIDE1{[CCCCCCCC(=O)[*:2]].H.M.R.Y.K.P.[dM].[am]}$$$$V2.0
SMILES: CCCCCCCC(=O)N[C@@H](Cc1c[nH]cn1)C(=O)N[C@@H](CCSC)C(=O)N[C@@H](CCCNC(=N)N)C(=O)N[C@@H](Cc1ccc(O)cc1)C(=O)N[C@@H](CCCCN)C(=O)N1CCC[C@H]1C(=O)N[C@H](CCSC)C(N)=O
With B3 the “EC50 for [Ca2+]” value [1] was less than 0.01 µM and the “EC50 for [Ca2+]” value (FPR1) was greater than 10 µM.

B4: peptide of SEQ ID NO 58 (peptide)
peptide: HMRYKPM
HELM: PEPTIDE1{H.M.R.Y.K.P.[dM].[am]}$$$$V2.0; N-terminus assumed
SMILES: CSCC[C@H](NC(=O)[C@@H](N)Cc1c[nH]cn1)C(=O)N[C@@H](CCCNC(=N)N)C(=O)N[C@@H](Cc1ccc(O)cc1)C(=O)N[C@@H](CCCCN)C(=O)N1CCC[C@H]1C(=O)N[C@H](CCSC)C(N)=O
With B4 the “EC50 for [Ca2+]” value [1] was less than 0.01 µM and the “EC50 for [Ca2+]” value (FPR1) was greater than 10 µM.

B5: peptide of SEQ ID NO 5 (peptide)
peptide: RMRYKVM
HELM: PEPTIDE1{R.M.R.Y.K.V.[dM].[am]}$$$$V2.0; N-terminus assumed
SMILES: CSCC[C@H](NC(=O)[C@@H](N)CCCNC(=N)N)C(=O)N[C@@H](CCCNC(=N)N)C(=O)N[C@@H](Cc1ccc(O)cc1)C(=O)N[C@@H](CCCCN)C(=O)N[C@H](C(=O)N[C@H](CCSC)C(N)=O)C(C)C
With B5 the “EC50 for [Ca2+]” value [1] was less than 0.01 µM and the “EC50 for [Ca2+]” value (FPR1) was greater than 10 µM.

B6: peptide of SEQ ID NO 55 (peptide)
peptide: MRYKPM
HELM: PEPTIDE1{[ac].M.R.Y.K.P.[dM].[am]}$$$$V2.0
SMILES: CSCC[C@H](NC(C)=O)C(=O)N[C@@H](CCCNC(=N)N)C(=O)N[C@@H](Cc1ccc(O)cc1)C(=O)N[C@@H](CCCCN)C(=O)N1CCC[C@H]1C(=O)N[C@H](CCSC)C(N)=O
With B6 the “EC50 for [Ca2+]” value [1] was less than 0.01 µM and the “EC50 for [Ca2+]” value (FPR1) was greater than 10 µM.

B7: peptide of SEQ ID NO 1 (peptide)
peptide: RWRYKVM
HELM: PEPTIDE1{R.W.R.Y.K.V.[dM].[am]}$$$$V2.0; N-terminus assumed
SMILES: CSCC[C@@H](NC(=O)[C@@H](NC(=O)[C@H](CCCCN)NC(=O)[C@H](Cc1ccc(O)cc1)NC(=O)[C@H](CCCNC(=N)N)NC(=O)[C@H](Cc1c[nH]c2ccccc12)NC(=O)[C@@H](N)CCCNC(=N)N)C(C)C)C(N)=O
B7 was tested, and the “EC50 for [Ca2+]” value [1] was less than 0.01 µM and the “EC50 for [Ca2+]” value (FPR1) was greater than 10 µM.

B8: peptide of SEQ ID NO 45 (peptide)
peptide: HMRYKYM
HELM: PEPTIDE1{[CCCC(=O)[*:2]].H.M.R.Y.K.Y.[dM].[am]}$$$$V2.0
SMILES: CCCC(=O)N[C@@H](Cc1c[nH]cn1)C(=O)N[C@@H](CCSC)C(=O)N[C@@H](CCCNC(=N)N)C(=O)N[C@@H](Cc1ccc(O)cc1)C(=O)N[C@@H](CCCCN)C(=O)N[C@@H](Cc1ccc(O)cc1)C(=O)N[C@H](CCSC)C(N)=O
In the case of B8, the “EC50 for [Ca2+]” value [1] is reported as less than 0.01 µM and the “EC50 for [Ca2+]” value (FPR1) is reported as greater than 10 µM.

B9: peptide of SEQ ID NO 6 (peptide)
peptide: RMRYKVM
HELM: PEPTIDE1{[ac].R.M.R.Y.K.V.[dM].[am]}$$$$V2.0
SMILES: CSCC[C@H](NC(=O)[C@H](CCCNC(=N)N)NC(C)=O)C(=O)N[C@@H](CCCNC(=N)N)C(=O)N[C@@H](Cc1ccc(O)cc1)C(=O)N[C@@H](CCCCN)C(=O)N[C@H](C(=O)N[C@H](CCSC)C(N)=O)C(C)C
B9 was tested, and the “EC50 for [Ca2+]” value [1] was less than 0.01 µM and the “EC50 for [Ca2+]” value (FPR1) was greater than 10 µM.

B10: peptide of SEQ ID NO 52 (peptide)
peptide: RMRYKPM
HELM: PEPTIDE1{[CCCC(=O)[*:2]].R.M.R.Y.K.P.[dM].[am]}$$$$V2.0
SMILES: CCCC(=O)N[C@@H](CCCNC(=N)N)C(=O)N[C@@H](CCSC)C(=O)N[C@@H](CCCNC(=N)N)C(=O)N[C@@H](Cc1ccc(O)cc1)C(=O)N[C@@H](CCCCN)C(=O)N1CCC[C@H]1C(=O)N[C@H](CCSC)C(N)=O
For B10, the “EC50 for [Ca2+]” value [1] was less than 0.01 µM and the “EC50 for [Ca2+]” value (FPR1) was greater than 10 µM.

B11: peptide of SEQ ID NO 51 (peptide)
peptide: RMRYKPM
HELM: PEPTIDE1{[ac].R.M.R.Y.K.P.[dM].[am]}$$$$V2.0
SMILES: CSCC[C@H](NC(=O)[C@H](CCCNC(=N)N)NC(C)=O)C(=O)N[C@@H](CCCNC(=N)N)C(=O)N[C@@H](Cc1ccc(O)cc1)C(=O)N[C@@H](CCCCN)C(=O)N1CCC[C@H]1C(=O)N[C@H](CCSC)C(N)=O
In the case of B11, the “EC50 for [Ca2+]” value [1] is reported as less than 0.01 µM and the “EC50 for [Ca2+]” value (FPR1) is reported as greater than 10 µM.

B12: peptide of SEQ ID NO 54 (peptide)
peptide: MRYKPM
HELM: PEPTIDE1{M.R.Y.K.P.[dM].[am]}$$$$V2.0; N-terminus assumed
SMILES: CSCC[C@H](N)C(=O)N[C@@H](CCCNC(=N)N)C(=O)N[C@@H](Cc1ccc(O)cc1)C(=O)N[C@@H](CCCCN)C(=O)N1CCC[C@H]1C(=O)N[C@H](CCSC)C(N)=O
B12 was tested, and the “EC50 for [Ca2+]” value [1] was less than 0.01 µM and the “EC50 for [Ca2+]” value (FPR1) was greater than 10 µM.

B13: peptide of SEQ ID NO 50 (peptide)
peptide: RMRYKPM
HELM: PEPTIDE1{R.M.R.Y.K.P.[dM].[am]}$$$$V2.0; N-terminus assumed
SMILES: CSCC[C@H](NC(=O)[C@@H](N)CCCNC(=N)N)C(=O)N[C@@H](CCCNC(=N)N)C(=O)N[C@@H](Cc1ccc(O)cc1)C(=O)N[C@@H](CCCCN)C(=O)N1CCC[C@H]1C(=O)N[C@H](CCSC)C(N)=O
For B13, the “EC50 for [Ca2+]” value [1] was less than 0.01 µM and the “EC50 for [Ca2+]” value (FPR1) was greater than 10 µM.

B14: peptide of SEQ ID NO 47 (peptide)
peptide: PMRYKYM
HELM: PEPTIDE1{[CCCC(=O)[*:2]].P.M.R.Y.K.Y.[dM].[am]}$$$$V2.0
SMILES: CCCC(=O)N1CCC[C@H]1C(=O)N[C@@H](CCSC)C(=O)N[C@@H](CCCNC(=N)N)C(=O)N[C@@H](Cc1ccc(O)cc1)C(=O)N[C@@H](CCCCN)C(=O)N[C@@H](Cc1ccc(O)cc1)C(=O)N[C@H](CCSC)C(N)=O
For B14, the “EC50 for [Ca2+]” value [1] was less than 0.01 µM and the “EC50 for [Ca2+]” value (FPR1) was greater than 10 µM.

B15: peptide of SEQ ID NO 57 (peptide)
peptide: MRYKPM
HELM: PEPTIDE1{[CCCCCCCC(=O)[*:2]].M.R.Y.K.P.[dM].[am]}$$$$V2.0
SMILES: CCCCCCCC(=O)N[C@@H](CCSC)C(=O)N[C@@H](CCCNC(=N)N)C(=O)N[C@@H](Cc1ccc(O)cc1)C(=O)N[C@@H](CCCCN)C(=O)N1CCC[C@H]1C(=O)N[C@H](CCSC)C(N)=O
B15 was tested, and the “EC50 for [Ca2+]” value [1] was less than 0.01 µM and the “EC50 for [Ca2+]” value (FPR1) was greater than 10 µM.

B16: peptide of SEQ ID NO 53 (peptide)
peptide: RMRYKPM
HELM: PEPTIDE1{[CCCCCCCC(=O)[*:2]].R.M.R.Y.K.P.[dM].[am]}$$$$V2.0
SMILES: CCCCCCCC(=O)N[C@@H](CCCNC(=N)N)C(=O)N[C@@H](CCSC)C(=O)N[C@@H](CCCNC(=N)N)C(=O)N[C@@H](Cc1ccc(O)cc1)C(=O)N[C@@H](CCCCN)C(=O)N1CCC[C@H]1C(=O)N[C@H](CCSC)C(N)=O
With B16 the “EC50 for [Ca2+]” value [1] was less than 0.01 µM and the “EC50 for [Ca2+]” value (FPR1) was greater than 10 µM.

B17: peptide of SEQ ID NO 4 (peptide)
peptide: KWKYKVM
HELM: PEPTIDE1{[ac].K.W.K.Y.K.V.[dM].[am]}$$$$V2.0
SMILES: CSCC[C@@H](NC(=O)[C@@H](NC(=O)[C@H](CCCCN)NC(=O)[C@H](Cc1ccc(O)cc1)NC(=O)[C@H](CCCCN)NC(=O)[C@H](Cc1c[nH]c2ccccc12)NC(=O)[C@H](CCCCN)NC(C)=O)C(C)C)C(N)=O
In the case of B17, the “EC50 for [Ca2+]” value [1] is reported as less than 0.01 µM and the “EC50 for [Ca2+]” value (FPR1) is reported as greater than 10 µM.

B18: peptide of SEQ ID NO 60 (peptide)
peptide: HMRYKPM
HELM: PEPTIDE1{[CCCC(=O)[*:2]].H.M.R.Y.K.P.[dM].[am]}$$$$V2.0
SMILES: CCCC(=O)N[C@@H](Cc1c[nH]cn1)C(=O)N[C@@H](CCSC)C(=O)N[C@@H](CCCNC(=N)N)C(=O)N[C@@H](Cc1ccc(O)cc1)C(=O)N[C@@H](CCCCN)C(=O)N1CCC[C@H]1C(=O)N[C@H](CCSC)C(N)=O
With B18 the “EC50 for [Ca2+]” value [1] was less than 0.01 µM and the “EC50 for [Ca2+]” value (FPR1) was greater than 10 µM.

B19: peptide of SEQ ID NO 59 (peptide)
peptide: HMRYKPM
HELM: PEPTIDE1{[ac].H.M.R.Y.K.P.[dM].[am]}$$$$V2.0
SMILES: CSCC[C@H](NC(=O)[C@H](Cc1c[nH]cn1)NC(C)=O)C(=O)N[C@@H](CCCNC(=N)N)C(=O)N[C@@H](Cc1ccc(O)cc1)C(=O)N[C@@H](CCCCN)C(=O)N1CCC[C@H]1C(=O)N[C@H](CCSC)C(N)=O
B19 was tested, and the “EC50 for [Ca2+]” value [1] was less than 0.01 µM and the “EC50 for [Ca2+]” value (FPR1) was greater than 10 µM.
